Measured values as given in patent publication US20060166332.

Molecular target: Cre recombinase (Bacteriophage P1?) (UniProt P06956)
Assay: cell_activity
Details: pCH110 control without loxP in Sure:cre

Chain of UniProt P06956 (P06956 whole entry): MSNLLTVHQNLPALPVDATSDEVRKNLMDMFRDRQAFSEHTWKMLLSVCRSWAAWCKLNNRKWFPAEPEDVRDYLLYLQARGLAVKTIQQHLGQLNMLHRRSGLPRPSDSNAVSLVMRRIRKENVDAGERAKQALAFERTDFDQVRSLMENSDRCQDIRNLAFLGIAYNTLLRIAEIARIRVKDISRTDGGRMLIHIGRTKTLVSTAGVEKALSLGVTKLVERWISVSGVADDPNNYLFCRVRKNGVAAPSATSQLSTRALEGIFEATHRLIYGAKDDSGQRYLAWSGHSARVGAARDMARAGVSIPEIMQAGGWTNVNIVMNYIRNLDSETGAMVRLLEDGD

## pCH110 plasmid without loxP
  activity (% white colonies): 0
